{"source": "patent US20160137696A1", "about": "(Bristol-Myers Squibb, published 2016)", "binders": {"B1": {"name": "Example 14088 (peptide)", "peptide": "FFXPDVFDPWYLCGX", "modifications": "as m17 (INT 1400L); Pra triazole-linked to vitamin E succinate 5-azidopentylamide"}, "B2": {"name": "INT-1400J (peptide)", "peptide": "{CH2CO}-Y[NMeA]DPHK[Hyp]WK[Trp(1-CH2CO)][NMeNle][NMeNle]ECG[Pra]", "modifications": "thioether N-14; not fully specified (C-terminus); printed as ClAc-Tyr-mAla-Asp-Pro-His-Lys-Hyp-Trp-Lys-Trp(1-carboxymethyl)-mNle-mNle-Glu-Cys-Gly-[(S)-propargylglycine], cyclised ClAc-Cys", "notes": "also called Intermediate 1400J"}, "B3": {"name": "Example 14084 (peptide)", "peptide": "{CH2CO}-[Phe(3,4,5-F3)][NMeF][NMeNle][dHyp]DV[NMeF]D[dP]WYLCG[Pra″]([triazole-(S)‑3‑carboxy‑3‑aminopropyl-Palmitoyl])", "modifications": "thioether N-13; not fully specified; printed as ClAc-F3Phe-mPhe-mNle-dHyp-Asp-Val-mPhe-Asp-dPro-Trp-Tyr-Leu-Cys-Gly-[(S)-propargylglycine]"}}, "note": "Starred links: 1 amine or outer side, 2 acyl side, 3 side chain; linkers in the order of their positions; H or OH if unused. Positions of bridges follow the written chain, without caps; N, C: chain ends. Non-standard residues stand in square brackets, D forms with d. Groups on a side chain read outwards from the residue. Primed or numbered codes have the meaning given here. No end group written: not given here. *: point of attachment. PEG8′ = PEG8 unit (23-azido-3,6,9,12,15,18,21-heptaoxatricosyl, i.e. an eight-unit PEG spacer) linking the triazole to vitamin E succinate; Pra′ = propargylglycine (built in as LPH), clicked to a 1-substituted triazol-4-yl-alanine, O=C([C@H](Cc1cn([*:3])nn1)N[*:1])[*:2]; X1 = (S)‑3‑carboxy‑3‑(15-carboxypentadecanoylamino)propyl, O=C(O)CCCCCCCCCCCCCCC(=O)N[C@@H](CC*)C(=O)O; Pra″ = its azide, alkyne or alkene has reacted where a group follows in round brackets; X2 = (S)‑3‑carboxy‑3‑palmitamidopropyl, CCCCCCCCCCCCCCCC(=O)N[C@@H](CC*)C(=O)O; Pra(3) = propargylglycine, clicked to an azide to give a triazolyl-alanine; triazole = 1,2,3-triazole formed by click of the Pra alkyne with the azide; Trp(1-CH2CO) = O=C([C@H](Cc1cn(CC(=O)[*:3])c2ccccc12)N[*:1])[*:2]; Phe(3,4,5-F3) = N[C@@H](Cc1cc(F)c(F)c(F)c1)C(=O)O; Biotin = O=C1N[C@H]2[C@H](CS[C@H]2CCCCC(=O)*)N1; C18 diacid = O=C(O)CCCCCCCCCCCCCCCCC(=O)*; Phe(4-F) = N[C@@H](Cc1ccc(F)cc1)C(=O)O; γGlu = O=C(O)[C@H](CCC(=O)[*:2])N[*:1]; Palmitoyl = CCCCCCCCCCCCCCCC(=O)*; Hyp = O=C(O)[C@@H]1C[C@@H](O)CN1; NMeF = CN[C@@H](Cc1ccccc1)C(=O)O; NMeE = CN[C@@H](CCC(=O)O)C(=O)O; dHyp = O=C(O)[C@H]1C[C@H](O)CN1; NMeNle = CCCC[C@H](NC)C(=O)O; Suc = O=C(CCC(=O)[*:2])[*:1]; triazole″ = not defined here; Pip = O=C(O)[C@@H]1CCCCN1; NMeA = CN[C@@H](C)C(=O)O; Orn = NCCC[C@H](N)C(=O)O; PEG7′ = not defined here; Pra = C#CC[C@H](N)C(=O)O; Dab = NCC[C@H](N)C(=O)O; Dap = NC[C@H](N)C(=O)O; Sar = CNCC(=O)O"}
{"target": "T1, Recombinant Human PD-L1-TVMV-His (human, UniProt Q9NZQ7 19-239)", "T1 construct": "expressed in HEK293T cells; also called PD-L1-His; hPD-L1(19-239)-TVMV-His", "T1 sequence (Q9NZQ7 other isoform, or with tags, fused parts or gaps limits assumed)": "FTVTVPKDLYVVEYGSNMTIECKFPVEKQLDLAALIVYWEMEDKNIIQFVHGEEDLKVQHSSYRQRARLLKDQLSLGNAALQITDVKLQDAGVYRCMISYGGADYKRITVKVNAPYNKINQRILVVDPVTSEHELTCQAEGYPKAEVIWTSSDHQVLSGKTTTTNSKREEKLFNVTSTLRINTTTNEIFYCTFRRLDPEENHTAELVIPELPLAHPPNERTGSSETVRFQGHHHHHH", "experiment": "HTRF vs PD-1-Ig", "method": "(§1) Homogenous Time-Resolved Fluorescence (HTRF) Assays of Binding of Soluble PD-1 to Soluble PD-L1. Soluble PD-1 and soluble PD-L1 refers to proteins with carboxyl-end truncations that remove the transmembrane-spanning regions and are fused to heterologous sequences, specifically the Fc portion of the human immunoglobuling G sequence (Ig) or the hexahistidine epitope tag (His). All binding studies were performed in an HTRF assay buffer consisting of dPBS supplemented with 0.1% (w/v) bovine serum albumin and 0.05% (v/v) Tween-20. For the PD-1-Ig/PD-L1-His binding assay, inhibitors were pre-incubated with PD-L1-His (10 nM final) for 15 m in 4 μl of assay buffer, followed by addition of PD-1-Ig (20 nM final) in 1 μl of assay buffer and further incubation for 15 m. PD-L1 fusion proteins from either human, cynomologous macaques, mouse, or other species were used. HTRF detection was achieved using europium crypate-labeled anti-Ig monoclonal antibody (1 nM final) and allophycocyanin (APC) labeled anti-His monoclonal antibody (20 nM final). Antibodies were diluted in HTRF detection buffer and 5 μl was dispensed on top of binding reaction. The reaction was allowed to equilibrate for 30 minutes and signal (665 nm/620 nm ratio) was obtained using an EnVision fluorometer. Additional binding assays were established between PD-I-Ig/PD-L2-His (20 and 5 nM, respectively), CD80-His/PD-L1-Ig (100 and 10 nM, respectively) and CD80-His/CTLA4-Ig (10 and 5 nM, respectively). Binding/competition studies between biotinylated Compound No. 71 and human PD-L1-His were performed as follows. Macrocyclic peptide inhibitors were pre-incubated with PD-L1-His (10 nM final) for 60 minutes in 4 μl of assay buffer followed by addition of biotinylated Compound No. 71 (0.5 nM final) in 1 μl of assay buffer. Binding was allowed to equilibrate for 30 minutes followed by addition of europium crypated labeled Streptavidin (2.5 pM final) and APC-labeled anti-His (20 nM final) in 5 μl of HTRF buffer. The reaction was allowed to equilibrate for 30 m and signal (665 nm/620 nm ratio) was obtained using an EnVision fluorometer.", "units": {"IC50": "nM"}}
{"binder": "B1", "IC50": 799}
{"binder": "{CH2CO}-Y[NMeA]DPHK[Hyp]WK[Trp(1-CH2CO)][NMeNle][NMeNle]ECG[Pra′]([triazole-X1]) (thioether N-14)", "note": "[Example 14078]", "IC50": 10.8}
{"binder": "{CH2CO}-[Phe(4-F)][Pip]DP[Dap]L[Hyp]W[Dab][Trp(1-CH2CO)][NMeNle][NMeNle]LCG[Dab]([γGlu-C18 diacid]) (thioether N-14 (inferred))", "note": "[Example 13150]", "IC50": 20.9}
{"binder": "{CH2CO}-Y[NMeA]DPHQ[Hyp]WSW[NMeNle][NMeNle]ECG[Pra(3)]([triazole″-PEG8′-Suc-vitamin E])G (thioether N-14; reading uncertain)", "note": "[Example 14055]", "IC50": 388}
{"binder": "{CH2CO}-Y[NMeA]NP[Dap]L[Hyp]W[Dab][Trp(1-CH2CO)][NMeNle][NMeNle]LCGG[Pra″]([triazole-PEG7′-γGlu-C18 diacid]) (thioether N-14 (inferred))", "note": "[Example 13123]", "IC50": 150}
{"binder": "{CH2CO}-Y[NMeA]DPHK[Hyp]WKW[NMeNle][NMeNle]ECG[Pra′]([triazole-X1]) (thioether N-14)", "note": "[Example 14067]", "IC50": 10.4}
{"binder": "B2", "IC50": 8.8}
{"binder": "{CH2CO}-Y[NMeA]DPHK[Hyp]WK[Trp(1-CH2CO)][NMeNle][NMeNle]ECG[Pra′]([triazole-X2]) (thioether N-14)", "note": "[Example 14072]", "IC50": 8.5}
{"binder": "B3", "IC50": 627}
{"binder": "{CH2CO}-F[NMeF][NMeNle][Sar]DV[NMeF]Y[NMeE]WYLCGGGK([PEG4‑propionyl-Biotin])-NH2 (thioether N-13)", "note": "[Example 3620]", "IC50": 9}
{"target": "T1, Recombinant Human PD-L1-TVMV-His", "experiment": "HTRF vs PD-1-Ig; B = IC50 0.01-0.099 µM", "method": "as §1", "units": {"IC50": "nM"}}
{"binder": "{CH2CO}-Y[NMeA]DPHK[Hyp]WK[Trp(1-CH2CO)][NMeNle][NMeNle]ECG[Pra′]([triazole-X1]) (thioether N-14)", "note": "[Example 14078]", "IC50": "10 to 99"}
{"target": "T1, Recombinant Human PD-L1-TVMV-His", "experiment": "HTRF vs PD-1-Ig; A = IC50 0.10-1.6 µM", "method": "as §1", "units": {"IC50": "nM"}}
{"binder": "{CH2CO}-Y[NMeA]NP[Dap]L[Hyp]W[Dab][Trp(1-CH2CO)][NMeNle][NMeNle]LCGG[Pra″]([triazole-(S)‑4‑azido‑2‑palmitamidobutanoic acid]) (thioether N-14 (inferred))", "note": "[Example 13122]", "IC50": "100 to 1600"}
{"binder": "{CH2CO}-[Phe(3,4,5-F3)][NMeF][NMeNle][dP]DV[NMeF][Orn][dP]WYLCG[Pra′]([triazole-X2]) (thioether N-13)", "note": "[Example 14081]", "IC50": "100 to 1600"}
